Measurements: patent publication US20040086503A1 (Amgen, published 2004)
Blank lines part the entries; values can stand above or below the binder they belong to.

Key:
COS7 IGF-IR = COS7 IGF-IR (old world monkey (COS7 cells)); experiment: cell-based or functional assay
Rhesus IGF-IR = Rhesus IGF-IR (rhesus, UniProt I2CWY3 31-736; I2CWY3 741-1367); experiment: cell-based or functional assay
human IGF-IR on cells [1] = molecular target: T1, human IGF-IR on cells (human, UniProt P08069 31-1367); experiment: cell-based or functional assay
canine IGF-IR = molecular target: T2, canine IGF-IR (canine, UniProt A0A8I3MER7 10-1344); experiment: immunoprecipitation and Western blot on cells
T2 construct: whole, on cells
Protocol: (§1) The samples prepared as described above were then analyzed by Western blot. We loaded 12 μl of each sample per lane on 4-10% gradient Novex™ gels run with 1× MES buffer (Novex™). Gels were run at 150V for 1 hour or at 200V for approximately 30 minutes. We then transferred the gel to a membrane in Novex™ transfer buffer with 10% methanol either overnight at 100 mA or for 1-1.5 hours at 250 mA. We then allowed the membrane to dry completely and blocked at room temperature with TBS (Tris-buffered saline pH 8.0) containing Superblock (Pierce Chemical Co.). We added the IGF-IR blotting antibody SC713 (Santa Cruz) to detect immunoprecipitated IGF-IR.

guinea pig IGF-IR = guinea pig IGF-IR (guinea pig, UniProt H0V5D0 31-736; H0V5D0 741-1367); experiment: immunoprecipitation and Western blot on cells
Protocol: as §1

rabbit IGF-IR = molecular target: T3, rabbit IGF-IR (rabbit, UniProt G1TLR2 31-1366); experiment: immunoprecipitation and Western blot on cells
T3 construct: whole, on cells
Protocol: as §1

human IGF-IR on cells [2] = molecular target: T1, human IGF-IR on cells; experiment: inhibition of [125I]-IGF-I binding to IGF-IR-transfected NIH-3T3 cells
Protocol: We plated IGF-IR-transfected NIH-3T3 cells (5×10⁴/ml) in 100 μl of DMEM high glucose media supplemented with L-glutamine (0.29 mg/ml), 10% heat-inactivated FBS, and 500 μg/ml each of geneticin, penicillin and streptomycin in 96-well U-bottom plates. We then incubated the plates at 37° C., 5% CO₂ overnight to allow cells to attach. We then decanted the media from the plates and replaced it with 100 μl fresh media per well. For testing, we diluted antibodies in assay media (DMEM high glucose media supplemented with L-glutamine, 10% heat-inactivated FBS, 200 μg/ml BSA and 500 μg/ml each of geneticin, penicillin and streptomycin) to the desired final concentration and added 50 μl per well. All samples were performed in triplicate. We then incubated the plates at 37° C. for ten minutes. […] We incubated the plates for 10 minutes at 37° C., decanted the media by blotting gently onto paper towels and washed twice with assay media. We then lysed the cells by adding 50 μl 0.1 N NaOH, 0.1% SDS and shaking the plates for five minutes at room temperature. We then transferred the samples to a scintillation plate, added 150 μl OptiPhase Supermix and read the signal on a Wallac Micro-Beta counter.

cynomologous IGF-IR = molecular target: T4, cynomologous IGF-IR (cynomologous); experiment: flow cytometry, biotinylated antibody on cynomologous cells, streptavidin-RPE
T4 construct: whole, on cells; also called IGF-IR of cynomologous cells
Protocol: We performed FACS analysis to determine the affinity of the antibodies of the invention for IGF-IR from other animals, particularly the old world monkeys described above. We incubated aliquots of human and monkey cells (5×10⁵) for 1 hour on ice with increasing concentrations of biotinylated anti-IGF-IR antibodies of the invention or with a biotinylated anti-keyhole limpet hemocyanin (KLH) antibody (Abgenix) as a negative control. We then incubated the samples for 30 minutes on ice with steptavidin-conjugated RPE (phycoerythrin). We measured binding by flow cytometry and analyzed the histograms of fluorescence intensity (Fl2-H) versus cell number (Counts) using CellQuest software. We calculated binding (Kd) for each antibody from graphs of mean fluorescence intensity versus antibody concentration. In most experiments, we measured binding in cultured human MCF-7 cells and either rhesus or cynomologous tissue culture cells. We controlled for depletion of the antibody by measuring binding over a range of cell concentrations.

T2 sequence (A0A8I3MER7 entry or part of it): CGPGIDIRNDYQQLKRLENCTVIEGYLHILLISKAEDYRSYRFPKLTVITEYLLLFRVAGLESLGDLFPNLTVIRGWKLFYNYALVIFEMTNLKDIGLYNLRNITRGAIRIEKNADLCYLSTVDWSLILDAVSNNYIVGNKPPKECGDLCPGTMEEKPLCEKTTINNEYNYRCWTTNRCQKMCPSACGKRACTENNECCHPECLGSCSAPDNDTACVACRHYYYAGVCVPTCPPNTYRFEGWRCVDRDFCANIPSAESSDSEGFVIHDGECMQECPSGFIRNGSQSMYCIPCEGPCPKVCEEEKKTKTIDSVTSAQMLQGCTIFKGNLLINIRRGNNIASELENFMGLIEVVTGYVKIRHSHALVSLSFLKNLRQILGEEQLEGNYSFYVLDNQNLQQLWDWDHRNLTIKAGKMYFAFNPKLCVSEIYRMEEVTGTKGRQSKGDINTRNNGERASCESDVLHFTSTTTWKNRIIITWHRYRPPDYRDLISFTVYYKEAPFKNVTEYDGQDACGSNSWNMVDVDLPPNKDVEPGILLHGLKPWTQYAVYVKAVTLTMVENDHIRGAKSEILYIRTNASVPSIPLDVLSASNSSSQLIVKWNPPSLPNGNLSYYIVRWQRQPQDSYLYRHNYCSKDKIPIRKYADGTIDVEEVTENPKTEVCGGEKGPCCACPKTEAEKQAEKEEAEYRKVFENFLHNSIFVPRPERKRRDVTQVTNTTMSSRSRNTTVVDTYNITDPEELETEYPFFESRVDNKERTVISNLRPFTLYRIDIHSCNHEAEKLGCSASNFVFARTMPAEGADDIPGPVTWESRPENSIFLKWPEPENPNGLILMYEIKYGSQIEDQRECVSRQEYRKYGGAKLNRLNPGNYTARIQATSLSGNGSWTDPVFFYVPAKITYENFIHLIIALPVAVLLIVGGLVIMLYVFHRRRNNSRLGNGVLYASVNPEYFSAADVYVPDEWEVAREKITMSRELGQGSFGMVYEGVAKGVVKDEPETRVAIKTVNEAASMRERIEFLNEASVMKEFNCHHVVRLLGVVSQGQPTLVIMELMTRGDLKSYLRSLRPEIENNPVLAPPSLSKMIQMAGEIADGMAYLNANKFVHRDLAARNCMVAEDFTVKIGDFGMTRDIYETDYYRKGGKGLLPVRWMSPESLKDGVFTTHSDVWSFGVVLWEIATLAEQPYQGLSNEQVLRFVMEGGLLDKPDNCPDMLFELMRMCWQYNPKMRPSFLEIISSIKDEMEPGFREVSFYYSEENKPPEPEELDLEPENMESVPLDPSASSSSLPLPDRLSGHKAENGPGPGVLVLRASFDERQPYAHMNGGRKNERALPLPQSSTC
Sequence of guinea pig IGF-IR (alpha, as listed by the source limits assumed, chain 1 of 2): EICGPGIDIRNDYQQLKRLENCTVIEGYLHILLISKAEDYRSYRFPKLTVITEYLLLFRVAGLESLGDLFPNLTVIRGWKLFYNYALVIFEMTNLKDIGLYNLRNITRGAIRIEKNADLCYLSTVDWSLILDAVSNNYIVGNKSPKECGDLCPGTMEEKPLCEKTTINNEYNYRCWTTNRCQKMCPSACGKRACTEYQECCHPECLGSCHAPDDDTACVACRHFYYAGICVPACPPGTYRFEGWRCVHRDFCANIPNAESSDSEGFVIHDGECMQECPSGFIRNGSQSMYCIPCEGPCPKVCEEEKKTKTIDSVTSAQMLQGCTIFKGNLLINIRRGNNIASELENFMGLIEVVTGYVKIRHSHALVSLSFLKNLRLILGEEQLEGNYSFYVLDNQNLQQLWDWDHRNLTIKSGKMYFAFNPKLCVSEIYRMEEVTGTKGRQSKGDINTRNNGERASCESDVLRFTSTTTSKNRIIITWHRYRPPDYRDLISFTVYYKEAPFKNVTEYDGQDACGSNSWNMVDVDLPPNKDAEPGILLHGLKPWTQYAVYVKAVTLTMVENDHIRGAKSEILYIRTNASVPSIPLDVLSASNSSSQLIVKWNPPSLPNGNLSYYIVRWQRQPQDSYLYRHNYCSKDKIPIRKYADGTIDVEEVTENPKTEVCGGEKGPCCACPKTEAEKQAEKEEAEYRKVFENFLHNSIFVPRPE
Sequence of guinea pig IGF-IR (beta, as listed by the source limits assumed, chain 2 of 2): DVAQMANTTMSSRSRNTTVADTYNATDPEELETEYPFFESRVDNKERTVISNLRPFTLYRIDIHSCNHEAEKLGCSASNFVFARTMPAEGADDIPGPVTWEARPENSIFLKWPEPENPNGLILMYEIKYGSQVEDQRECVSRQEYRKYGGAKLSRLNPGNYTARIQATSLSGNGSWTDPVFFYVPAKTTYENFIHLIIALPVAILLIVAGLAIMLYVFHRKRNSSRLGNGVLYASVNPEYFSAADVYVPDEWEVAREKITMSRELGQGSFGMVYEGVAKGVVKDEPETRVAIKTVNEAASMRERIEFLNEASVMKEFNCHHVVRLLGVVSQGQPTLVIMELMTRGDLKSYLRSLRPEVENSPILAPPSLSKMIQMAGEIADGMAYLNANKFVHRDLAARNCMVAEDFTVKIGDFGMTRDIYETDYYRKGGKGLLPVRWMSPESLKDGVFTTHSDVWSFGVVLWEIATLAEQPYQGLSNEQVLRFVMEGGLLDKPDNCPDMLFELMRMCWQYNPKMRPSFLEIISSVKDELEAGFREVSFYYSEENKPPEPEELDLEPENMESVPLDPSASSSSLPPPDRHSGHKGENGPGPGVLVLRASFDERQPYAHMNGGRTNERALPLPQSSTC
Sequence of Rhesus IGF-IR (alpha, as listed by the source limits assumed, chain 1 of 2): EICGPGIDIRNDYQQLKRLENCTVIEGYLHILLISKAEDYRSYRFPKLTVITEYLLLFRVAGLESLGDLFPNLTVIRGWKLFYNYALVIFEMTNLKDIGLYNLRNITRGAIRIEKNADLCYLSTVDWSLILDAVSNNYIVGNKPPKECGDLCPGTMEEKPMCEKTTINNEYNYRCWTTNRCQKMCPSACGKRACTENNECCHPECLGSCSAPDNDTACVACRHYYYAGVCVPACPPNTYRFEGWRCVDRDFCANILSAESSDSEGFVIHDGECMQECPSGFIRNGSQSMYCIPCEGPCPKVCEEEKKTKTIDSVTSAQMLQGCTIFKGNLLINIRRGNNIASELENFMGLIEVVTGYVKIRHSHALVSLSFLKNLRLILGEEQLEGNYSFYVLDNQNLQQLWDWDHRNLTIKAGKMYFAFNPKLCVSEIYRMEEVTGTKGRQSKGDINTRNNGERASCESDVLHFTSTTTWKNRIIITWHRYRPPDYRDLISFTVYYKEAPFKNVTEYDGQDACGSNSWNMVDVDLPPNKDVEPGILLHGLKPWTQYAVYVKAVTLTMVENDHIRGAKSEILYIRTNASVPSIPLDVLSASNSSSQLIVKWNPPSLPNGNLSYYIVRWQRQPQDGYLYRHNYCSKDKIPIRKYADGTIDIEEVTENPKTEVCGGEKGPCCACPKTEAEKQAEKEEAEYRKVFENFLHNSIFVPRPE
Sequence of Rhesus IGF-IR (beta, as listed by the source limits assumed, chain 2 of 2): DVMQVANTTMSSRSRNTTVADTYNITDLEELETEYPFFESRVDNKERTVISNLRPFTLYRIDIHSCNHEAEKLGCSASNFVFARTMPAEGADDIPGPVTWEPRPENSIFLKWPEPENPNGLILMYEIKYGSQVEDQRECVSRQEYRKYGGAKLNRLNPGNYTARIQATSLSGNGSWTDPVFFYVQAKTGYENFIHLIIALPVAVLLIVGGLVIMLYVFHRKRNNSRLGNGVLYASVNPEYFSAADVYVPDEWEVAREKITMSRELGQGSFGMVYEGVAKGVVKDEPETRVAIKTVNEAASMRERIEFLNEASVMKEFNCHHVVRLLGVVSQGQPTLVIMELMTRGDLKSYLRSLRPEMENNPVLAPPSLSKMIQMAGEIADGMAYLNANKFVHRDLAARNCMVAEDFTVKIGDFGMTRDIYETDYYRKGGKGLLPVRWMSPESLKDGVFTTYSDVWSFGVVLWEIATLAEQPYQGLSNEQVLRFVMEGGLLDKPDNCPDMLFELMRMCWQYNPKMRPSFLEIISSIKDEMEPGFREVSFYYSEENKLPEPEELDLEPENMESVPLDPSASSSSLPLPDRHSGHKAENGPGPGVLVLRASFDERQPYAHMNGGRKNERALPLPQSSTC

IC50 of inhibition of IGF-I-induced phosphorylation of IGF-IR (immunoprecipitation, Western blot with HRP-PY54) (COS7 IGF-IR): 0.02 µg/mL
IC50 of inhibition of IGF-I-induced phosphorylation of IGF-IR (immunoprecipitation, Western blot with HRP-PY54) (Rhesus IGF-IR): 0.005 µg/mL
IC50 of inhibition of IGF-I-induced tyrosine phosphorylation of IGF-IR (ELISA, IGF-IR-transfected NIH-3T3 cells) (human IGF-IR on cells [1]): 0.0324 µg/mL
binding result (canine IGF-IR): no binding (tested: 1 µg/ml)
binding result (guinea pig IGF-IR): no binding (tested: 1 µg/ml)
binding result (rabbit IGF-IR): no binding (tested: 1 µg/ml)
IC50 (human IGF-IR on cells [2]): 0.1 µg/mL
Kd (cynomologous IGF-IR): 0.1 µg/mL
B1: anti-IGF-IR antibody 4.9.2 (antibody, human IgG2, V domains shown)
VH: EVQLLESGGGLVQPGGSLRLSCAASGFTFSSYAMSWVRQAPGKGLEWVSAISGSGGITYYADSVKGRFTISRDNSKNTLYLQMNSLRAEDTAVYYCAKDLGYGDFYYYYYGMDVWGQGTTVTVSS
VL: DIQMTQSPSSLSASVGDRVTITCRASQGIRSDLGWFQQKPGKAPKRLIYAASKLHRGVPSRFSGSGSGTEFTLTISRLQPEDFATYYCLQHNSYPLTFGGGTKVEIK
notes: Human IgG2 kappa; Biotinylated in the FACS assay

IC50 of inhibition of IGF-I-induced phosphorylation of IGF-IR (immunoprecipitation, Western blot with HRP-PY54) (COS7 IGF-IR): 0.02 µg/mL
IC50 of inhibition of IGF-I-induced phosphorylation of IGF-IR (immunoprecipitation, Western blot with HRP-PY54) (Rhesus IGF-IR): 0.005 µg/mL
IC50 of inhibition of IGF-I-induced tyrosine phosphorylation of IGF-IR (ELISA, IGF-IR-transfected NIH-3T3 cells) (human IGF-IR on cells [1]): 0.0812 µg/mL
binding result (canine IGF-IR): no binding (tested: 1 µg/ml)
binding result (guinea pig IGF-IR): no binding (tested: 1 µg/ml)
binding result (rabbit IGF-IR): no binding (tested: 1 µg/ml)
IC50 (human IGF-IR on cells [2]): 0.18 µg/mL
Kd (cynomologous IGF-IR): 0.1 µg/mL
B2: anti-IGF-IR antibody 2.13.2 (antibody, V domains shown)
VH: EVQLLESGGGLVQPGGSLRLSCTASGFTFSSYAMNWVRQAPGKGLEWVSAISGSGGTTFYADSVKGRFTISRDNSRTTLYLQMNSLRAEDTAVYYCAKDLGWSDSYYYYYGMDVWGQGTTVTVSS
VL: DIQMTQFPSSLSASVGDRVTITCRASQGIRNDLGWYQQKPGKAPKRLIYAASRLHRGVPSRFSGSGSGTEFTLTISSLQPEDFATYYCLQHNSYPCSFGQGTKLEIKR
notes: Fully human IgG2 kappa from a XenoMouse hybridoma; Biotinylated in the FACS assay

IC50 of inhibition of IGF-I-induced tyrosine phosphorylation of IGF-IR (ELISA, IGF-IR-transfected NIH-3T3 cells) (human IGF-IR on cells [1]): 0.325 µg/mL
B3: anti-IGF-IR antibody 2.14.3 (antibody, human IgG2, V domains shown)
VH: GPGLVKPSETLSLTCTVSGGSISNYYWSWIRQPAGKGLEWIGRIYTSGSPNYNPSLKSRVTMSVDTSKNQFSLKLNSVTAADTAVYYCAVTIFGVVIIFDYWGQGTLVTVSS
VL: SSLSASVGDRVTFTCRASQDIRRDLGWYQQKPGKAPKRLIYAASRLQSGVPSRFSGSGSGTEFTLTISSLQPEDFATYYCLQHNNYPRTFGQGTEVEIIR

IC50 of inhibition of IGF-I-induced tyrosine phosphorylation of IGF-IR (ELISA, IGF-IR-transfected NIH-3T3 cells) (human IGF-IR on cells [1]): 0.172 µg/mL
binding result (canine IGF-IR): no binding (tested: 1 µg/ml)
binding result (guinea pig IGF-IR): no binding (tested: 1 µg/ml)
binding result (rabbit IGF-IR): no binding (tested: 1 µg/ml)
IC50 (human IGF-IR on cells [2]): 0.45 µg/mL
B4: anti-IGF-IR antibody 2.12.1 (antibody, V domains shown)
VH: QAQLVESGGGLVKPGGSLRLSCAASGFTFSDYYMSWIRQAPGKGLEWVSYISSSGSTRDYADSVKGRFTISRDNAKNSLYLQMNSLRAEDTAVYYCVRDGVETTFYYYYYGMDVWGQGTTVTVSS
VL: DIQMTQSPSSLSASVGDRVTFTCRASQDIRRDLGWYQQKPGKAPKRLIYAASRLQSGVPSRFSGSGSGTEFTLTISSLQPEDFATYYCLQHNNYPRTFGQGTEVEIIR
notes: as for B2
